{"source": "paper PMC7041794", "about": "“Investigating the ferric ion binding site of magnetite biomineralisation protein Mms6” (PLoS ONE, 2020)", "proteins": {"B1": {"name": "SUMO-Mms6 (natural protein, Magnetospirillum magneticum AMB-1)", "chain": "GGTIWTGKGLGLGLGLGLGAWGPIILGVVGAGAVYAYMKSRDIESAQSDEEVELRDALA", "notes": "Mms6, Magnetospirillum magneticum AMB-1, mature form (59 residues), the C-terminal stretch of the printed SUMO-Mms6 construct; numbers count on: the mature protein (truncated form isolated by Arakaki et al.); No cleavage of the tags is described; also called wildtype SUMO-Mms6; Mms6 (His6-SUMO fusion); source: E. coli BL21 (DE3) Star, purified (nickel column, dialysis against EDTA and …)"}, "B2": {"name": "SUMO-Mms6 E51A (natural protein, Magnetospirillum magneticum AMB-1)", "chain": "B1 chain with E51A", "notes": "Mms6, Magnetospirillum magneticum AMB-1, mature form; numbers count on: the mature protein; Same tags and construct as m1; source: E. coli BL21 (DE3) Star, purified (nickel column, dialysis); not shown: His6, N-terminal, kept; SUMO (yeast), N-terminal, kept"}, "B3": {"name": "SUMO-Mms6 E53A (natural protein, Magnetospirillum magneticum AMB-1)", "chain": "B1 chain with E53A", "notes": "as for B2"}, "B4": {"name": "SUMO-Mms6 D49A (natural protein, Magnetospirillum magneticum AMB-1)", "chain": "B1 chain with D49A", "notes": "as for B2"}, "B5": {"name": "SUMO-Mms6 EE50AA (natural protein, Magnetospirillum magneticum AMB-1)", "chain": "B1 chain with E50A, E51A", "notes": "Mms6, Magnetospirillum magneticum AMB-1, mature form; numbers count on: the mature protein; Same tags and construct as m1; also called double mutant; source: E. coli BL21 (DE3) Star, purified (nickel column, dialysis); not shown: His6, N-terminal, kept; SUMO (yeast), N-terminal, kept"}, "B6": {"name": "SUMO-Mms6 R55A (natural protein, Magnetospirillum magneticum AMB-1)", "chain": "B1 chain with R55A", "notes": "as for B2"}, "B7": {"name": "SUMO-Mms6 E50A (natural protein, Magnetospirillum magneticum AMB-1)", "chain": "B1 chain with E50A", "notes": "as for B2"}, "B8": {"name": "SUMO-Mms6 E44A (natural protein, Magnetospirillum magneticum AMB-1)", "chain": "B1 chain with E44A", "notes": "as for B2"}, "B9": {"name": "SUMO-Mms6 D42A (natural protein, Magnetospirillum magneticum AMB-1)", "chain": "B1 chain with D42A", "notes": "Mms6, Magnetospirillum magneticum AMB-1, mature form; numbers count on: the mature protein; Same tags and construct as m1 (pET28SUMOmms6, site directed mutagenesis); source: E. coli BL21 (DE3) Star, purified (nickel column, dialysis); not shown: His6, N-terminal, kept; SUMO (yeast), N-terminal, kept"}}, "note": "Changes are numbered by the printed parent chain."}
{"molecular_target": "the molecule itself", "test": "SEC; gel filtration of purified SUMO-Mms6 on Superdex S200 10/300 in 20 mM Tris pH 7.4; molecular weights extrapolated from Gel Filtration Marker Kit standards"}
{"protein": "B1", "stoichiometry N": 2}
{"molecular_target": "the molecule itself", "test": "SDS-PAGE; purified proteins on Bio-Rad AnyKd gel, InstantBlue staining; apparent monomer and dimer bands"}
{"protein": "B2", "binding result": "binds"}
{"protein": "B3", "binding result": "binds"}
{"protein": "B4", "binding result": "binds"}
{"protein": "B5", "binding result": "binds"}
{"protein": "B6", "binding result": "binds"}
{"protein": "B7", "binding result": "binds"}
{"protein": "B8", "binding result": "binds"}
{"protein": "B9", "binding result": "binds"}
